Experimental data taken from US7008780, “Chimeric DNA-binding proteins” (Massachusetts Institute of Technology).

Columns and labels:
Zif268 zinc fingers 1-3 [1] = target: T1, Zif268 zinc fingers 1-3 (UniProt P08046 P08046:336-416); assay: EMSA
[2] = target: Oct-1 POU domain (POU-specific domain and homeodomain) (UniProt P14859 P14859:280-438); assay: EMSA; 10 mM Hepes pH 7.9, 50 mM KCl, 0.5 mM EDTA, 30 C; apparent Kd
Zif268 zinc fingers 1-3 [3] = target: T1, Zif268 zinc fingers 1-3; assay: as above
[4] = target: GST-ZFHD1 (Zif268 fingers 1-2, GGRR linker, Oct-1 homeodomain) (synthetic chimera (mouse Zif268 / human …, UniProt P08046;P14859 P08046:333-390,P14859:378-439)); assay: as above; details: tags: N-terminal GST (pGEX2T)

Chain of Oct-1 POU domain (POU-specific domain and homeodomain) (P14859 280-438, one chain of several): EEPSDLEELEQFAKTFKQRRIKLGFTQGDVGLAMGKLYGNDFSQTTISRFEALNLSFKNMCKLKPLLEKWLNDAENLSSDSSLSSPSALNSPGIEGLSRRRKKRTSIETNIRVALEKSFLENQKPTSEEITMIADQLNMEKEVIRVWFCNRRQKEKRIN

B1: hybrid site probe TCATTATGGGCG (dsDNA)
DNA 1: CCTCGAGGTCATTATGGGCGCTAGGTACC
DNA 2: GGTACCTAGCGCCCATAATGACCTCGAGG
B1: no binding (Zif268 zinc fingers 1-3 [1]).

B2: Oct-1 octamer site probe (dsDNA)
DNA 1: CCTCGAGGTCATTTGCATACTAGGTACC
DNA 2: GGTACCTAGTATGCAAATGACCTCGAGG
B2 gave a Kd [2] of 180 pM.

B3: Zif268 site probe (dsDNA)
DNA 1: CCTCGAGGCGCCCACGCCTAGGTACC
DNA 2: GGTACCTAGGCGTGGGCGCCTCGAGG
Binder B3 has a Kd (Zif268 zinc fingers 1-3 [3]) of 330 pM.

B4: hybrid site probe TAATGATGGGCG (dsDNA)
DNA 1: CCTCGAGGCGCCCATCATTACTAGGTACC
DNA 2: GGTACCTAGTAATGATGGGCGCCTCGAGG
B4 gave a Kd [4] of 840 pM.
